Results reported in patent US5780265, “Kunitz type plasma kallikrein inhibitors” (Genentech, Inc., dated 1998).
Like-named read-outs stand apart in the source and are kept apart here. Where no end group is shown, it is not given here.

Tests used:
Human Factor XIa [1] = target: T1, Human Factor XIa (human, UniProt P03951); assay: enzyme inhibition of FXIa, chromogenic substrate, fit to the tight-binding equation (apparent Ki*)
Human plasma kallikrein [2] = target: T2, Human plasma kallikrein (human, UniProt P03952); assay: enzyme inhibition of plasma kallikrein (apparent Ki*)
Human plasma kallikrein [3] = target: T2, Human plasma kallikrein; assay: enzyme inhibition of plasma kallikrein, substrate S2302, fit to the tight-binding equation (apparent Ki*)
Human Factor XIa [4] = target: T1, Human Factor XIa; assay: enzyme inhibition of FXIa, chromogenic substrate, fit to the tight-binding equation (apparent Ki*); remark: listed apart in the source
Human plasma kallikrein [5] = target: T2, Human plasma kallikrein; assay: enzyme inhibition of plasma kallikrein, substrate S2302, fit to the tight-binding equation (apparent Ki*); remark: listed apart in the source
Method: Determination of the apparent equilibrium dissociation constants of selected Kunitz domains with plasma kallikrein and FXIa. The inhibitory activity is expressed as the fractional activity (inhibited rate/uninhibited rate) at varying inhibitor concentrations. The apparent equilibrium dissociation constants were determined by nonlinear regression analysis of the data to equation 1.
Plots of the fractional rate versus inhibitor concentration were fit by nonlinear regression analysis to Equation 1 to determine apparent equilibrium dissociation constants (K_i^*):

Human plasma kallikrein [6] = target: T2, Human plasma kallikrein; assay: enzyme inhibition of plasma kallikrein (apparent Ki*), against BPTI
Human plasma kallikrein [7] = target: T2, Human plasma kallikrein; assay: enzyme inhibition of plasma kallikrein (apparent Ki*), against APPI

Row | Binder | Ki (Human Factor XIa [1]) [nM] | Ki (Human plasma kallikrein [3]) [nM] | Ki (Human Factor XIa [4]) [nM] | Ki (Human plasma kallikrein [5]) [nM] | further results
1 | KALI-D (designed binder) VREVCSEQAEDGHCRAAHPRWYFDVTEGKCAPFFYGGCGGNRNNFDTEEYCAAVCGSA | 5.7 | 0.025 | – | – | Ki (Human plasma kallikrein [2]): < 0.05 nM
2 | KALI-46 (designed binder) VREVCSEQAEEGRCRASILRWYFDVTEGKCAPFFYGGCGGNRNNFDTEEYCAAVCGSA | – | – | 0.3 | 0.175 | –
3 | KALI-8 (designed binder) VREVCSEQAELGHCRAAIPRWYFDVTEGKCAPFFYGGCGGNRNNFDTEEYCAAVCGSA | – | – | 0.3 | 0.074 | –
4 | KALI-13 (designed binder) VREVCSEQAESGHCRAAIPRWYFDVTEGKCAPFFYGGCGGNRNNFDTEEYCAAVCGSA | – | – | 1.4 | 0.203 | –
5 | KALI-30 (designed binder) VREVCSEQAEEGHCRAAILRWYFDVTEGKCAPFFYGGCGGNRNNFDTEEYCAAVCGSA | – | – | 0.4 | 0.258 | –
6 | KALI-PV (designed binder) VREVCSEQAEPGHCRAAHPRWYFDVTEGKCAPFVYGGCGGNRNNFDTEEYCAAVCGSA | 4.1 | 0.166 | – | – | –
7 | KALI-EV (designed binder) VREVCSEQAEEGHCRAAHPRWYFDVTEGKCAPFVYGGCGGNRNNFDTEEYCAAVCGSA | – | 0.117 | – | – | –
8 | KALI-48 (designed binder) VREVCSEQAETGHCRAAIPRWYFDVTEGKCAPFFYGGCGGNRNNFDTEEYCAAVCGSA | – | – | 0.7 | 0.209 | –
9 | KALI-DV (designed binder) VREVCSEQAEDGHCRAAHPRWYFDVTEGKCAPFVYGGCGGNRNNFDTEEYCAAVCGSA | 1.3 | 0.043 | – | – | Ki (Human plasma kallikrein [2]): < 0.05 nM
10 | KALI-PY (designed binder, not fully specified (bridges); cysteine pairing not given here) VREVCSEQAEPGHCRAAHPRWYFDVTEGKCAPFYYGGCGGNRNNFDTEEYCAAVCGSA | 11.7 | 0.136 | – | – | –
11 | KALI-EY (designed binder) VREVCSEQAEEGHCRAAHPRWYFDVTEGKCAPFYYGGCGGNRNNFDTEEYCAAVCGSA | 7.3 | 0.98 | – | – | –
12 | KALI-P (designed binder) VREVCSEQAEPGHCRAAHPRWYFDVTEGKCAPFFYGGCGGNRNNFDTEEYCAAVCGSA | 13.8 | 0.2 | – | – | –
13 | KALI-E (designed binder) VREVCSEQAEEGHCRAAHPRWYFDVTEGKCAPFFYGGCGGNRNNFDTEEYCAAVCGSA | 4.5 | 0.103 | – | – | –
14 | KALI-DY (designed binder) VREVCSEQAEDGHCRAAHPRWYFDVTEGKCAPFYYGGCGGNRNNFDTEEYCAAVCGSA | 8.2 | 0.015 | – | – | fold more potent than BPTI (Human plasma kallikrein [6]): 3000 fold; Ki (Human plasma kallikrein [2]): < 0.05 nM; fold better inhibition than APPI (Human plasma kallikrein [7]): > 10000 fold
